How the values were obtained:
[1] = biological target: rat NCAM F3 modules 1-2 (rat) (UniProt P13596); assay: SPR (BIAcore2000), soluble FGFR Ig2 on immobilized NCAM F3 modules 1-2
[2] = biological target: Ig2 module of mouse FGFR1 (IIIc isoform) (mouse) (UniProt P16092); assay: SPR (BIAcore2000), soluble NCAM F3 modules 1-2 on immobilized FGFR Ig2
Chain of Ig2 module of mouse FGFR1 (IIIc isoform) (mouse) (P16092 other isoform, or with tags, fused parts or gaps limits assumed, form in doubt): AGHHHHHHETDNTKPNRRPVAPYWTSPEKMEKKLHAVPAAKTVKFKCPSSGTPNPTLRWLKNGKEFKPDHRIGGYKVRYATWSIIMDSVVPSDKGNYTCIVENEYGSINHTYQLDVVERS

Chain of rat NCAM F3 modules 1-2 (rat) (P13596 other isoform, or with tags, fused parts or gaps limits assumed, form in doubt): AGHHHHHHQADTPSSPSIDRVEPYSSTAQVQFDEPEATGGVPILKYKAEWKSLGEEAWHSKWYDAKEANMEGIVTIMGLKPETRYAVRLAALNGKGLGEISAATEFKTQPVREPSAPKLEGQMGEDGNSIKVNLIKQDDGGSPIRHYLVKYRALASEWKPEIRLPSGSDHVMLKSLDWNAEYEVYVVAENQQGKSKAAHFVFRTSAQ

| Substance | Kd [1] [µM] | Kd [2] [µM] |
| --- | --- | --- |
| Ig2 module of mouse FGFR1 (IIIc isoform) (from UniProt P16092 140-251) (receptor) | 35 | – |
| rat NCAM F3 modules 1-2 (from UniProt P13596 507-705) (receptor) | – | 12 |
